Experiment [1] has as its target H-ferritin receptors (binding sites) on bovine retinal endothelial cells (BREC cell homogenate). As to the kind of experiment: saturation binding of 125I-H-ferritin to BREC homogenate, one-site global fit.
Experiment [2] deals with H-ferritin receptors (binding sites) on rat brain microvasculature (isolated microvessels). The experiment in a line: saturation binding of 125I-H-ferritin to rat brain microvessels, one-site global fit.
Experiment [3] has as its target H-ferritin receptors (binding sites) on bovine retinal endothelial cells (BREC cell homogenate). As to the kind of experiment: homologous competition: unlabelled H-ferritin against 0.4 nM 125I-H-ferritin on BREC homogenate, one-site competition fit.

“recombinant human H-ferritin (His tagged, expressed in E. coli, nickel column purified) (from UniProt P02794 1-183) (ligand)”: the Bmax (fmol/mg protein) in experiment [1] was found to be 466; in experiment [2] it was 573. In addition, the Kd in experiment [1] was 2.7 nM; in experiment [2], 7.9 nM; in experiment [3], 2 nM.

What is called Kd is the concentration at which binding is half-saturated.

The values above are taken from EP2265113B1.
